The record followed here is publication PMC11449929, “Structural basis of α-latrotoxin transition to a cation-selective pore” (Nature Communications, 2024).

“And” between values parts separate entries of the source, which are not always exact repeats. Equal values may be shown once.

This data set concerns the molecule itself. In words: cryo-EM structure; α-LTX at 0.5 mg/ml in 25 mM Tris-HCl pH 8.0, 150 mM NaCl, 0.1 mM CaCl2, 0.2 mM MgCl2; 2D classification and 3D reconstruction of two tetrameric states (prepore, pore).

B1: α-latrotoxin (natural protein)
chain: EGEDLTLEEKAEICSELELQQKYVDIASNIIGDLSSLPIAGKIAGTIAAAAMTATHVASGRLDIEQTLLGCSDLPFDQIKEVLENRFNEIDRKLDSHSAALEEITKLVEKSISVVEKTRKQMNKRFDEVMKSIQDAKVSPIISKINNFARYFDTEKERIRGLKLNDYILKLEEPNGILLHFKESRTPTDDSLQAPLFSIIEEGYAVPKSIDDELAFKVLYALLYGTQTYVSVMFFLLEQYSFLANHYYEKGYLEKYDEYFNSLNNVFLDFKSSLVGTGTSNNEGLLDRVLQVLMTVKNSEFLGLEKNGVDEMLNEKINLFNKIKEEIEGKQKMTLSETPENFAQISFDKDITTPIGDWRDGREVRYAVQYASETLFSKISHWSDPVSVREKACPTLRMPVDQTRRNVLVFRKFDSSKPQLVGEITPYLSNFIDIDRDLYNAASNPDSAVGFKEFTKLNYDGANIRATFDHGRTVFHAAAKSGNDKIMFGLTFLAKSTELNQPDKKGYTPIHVAADSGNAGIVNLLIQRGVSINSKTYHFLQTPLHLAAQRGFVTTFQRLMESPEININERDKDGFTPLHYAIRGGERILEAFLNQISIDVNAKSNTGLTPFHLAIIKNDWPVASTLLGSKKVDINAVDENNITALHYAAILGYLETTKQLINLKEINANVVSSPGLLSALHYAILYKHDDVASFLMRSSNVNVNLKALGGITPLHLAVIQGRKQILSLMFDIGVNIEQKTDEKYTPLHLAAMSKYPELIQILLDQGSNFEAKTNSGATPLHLATFKGKSQAALILLNNEVNWRDTDENGQMPIHGAAMTGLLDVAQAIISIDATVVDIEDKNSDTPLNLAAQNSHIDVIKYFIDQGADINTRNKKGLAPLLAFSKKGNLDMVKYLFDKNANVYIADNDGMNFFYYAVQNGHLNIVKYAMSEKDKFEWSNTDNNRRDECPNEECAISHFAVCDAVQFDRIEIVKYFVGTLGNFAICGPLHQAARYGHLDIVKYLVEEEFLSVDGSKTDTPLCYASENGHFTVVQYLVSNGAKVNHDCGNGMTAIDKAITKNHLQVVQFLAANGVDFRRKNSRGTTPFLTAVAENALHIAEYLIREKRQDININEQNVDKDTALHLAVYYKNLQMIKLLIKYGIDVTIRNAYDKTALDIAIDAKFSNIVEYLKTKSGKFRR
notes: Tetramer in the presence of Ca2+/Mg2+; monomers, dimers and trimers stand in the same sample; Disulfide bonds seen: C34-C91 (CC1), C968-C973 (CC2), and CC3 and CC4 in AR15-19; the model ends at G1195; also called α-LTX
Usually stoichiometry N stands for the number of molecules, sites or subunits per partner or assembly. Regarding B1, the “stoichiometry N” value was 4 and 3 and 2.
